Experimental data reported in patent publication US20250101107A1 (REPERTOIRE IMMUNE MEDICINES, published 2025).

Columns and labels:
mouse CD8 on mouse cells = target: T1, mouse CD8 on mouse cells (mouse, UniProt P01731 28-247); test: in vivo, B16F10 tumour-bearing mice, flow cytometry of peripheral blood 4 days after the first i.v. dose; % IL-12p40+ of CD8+ T cells
T1 construct: whole, on cells; Carried by CD8+ T cells and CD8+ dendritic cells of C57BL/6 mice, read ex vivo after dosing; also called mCD8
Protocol: Mice were injected weekly for a total of 4 doses, at a dose equivalent to 10 μg of recombinant IL12. Tumor volume was measured twice per week, and mice were euthanized if tumor volume exceeded 2000 mm³. […] Specifically, in the MC38 model, treatment with the CD8IgG-IL12 (LC) Clone 2 construct controlled tumor growth up to day 21 and yielded 3/8 complete responders, whereas treatment with the CD8IgG-IL12 (1×HC) construct controlled tumor growth for the entire duration of the study and yielded 7/8 complete responders (FIGS. 6A-6C). In the B16-F10 model, which is typically less responsive to immunotherapy, both constructs limited tumor growth for up to 14 days after the initial dose (FIGS. 7A-7C).
In the same study, the two anti-CD8:IL-12 fusion constructs were also evaluated for their ability to be retained in tissues. Peripheral blood cells were collected from MC38 and B16-F10 tumor-bearing mice 4 days after administration of the first dose of the IL-12 construct. Samples were analyzed by flow cytometry. In the case of the MC38 tumor-bearing mice, IL-12 was detected on the surface of CD8⁺ T cells 4 days post-treatment with either of the two anti-CD8:IL-12 fusion protein constructs, but not on the surface of CD4⁺ T cells or NK cells (FIG. 8A). […]

[1] = target: T2, cynomolgus monkey CD8 on cynomolgus cells (cynomolgus monkey); test: cell-based or functional assay
[2] = target: T2, cynomolgus monkey CD8 on cynomolgus …; test: flow cytometry, cynomolgus PBMCs incubated 30 min at 37 C with the fusion protein, anti-IL-12, gated on NK cells, which express CD8 in the cynomolgus monkey
Protocol: (§1) Fusion proteins H6K3-IgG-IL12 (LC) and H6K3-IgG-IL12 (1×HC) were also evaluated for their ability to bind CD8-expressing cells in human and cynomolgus monkey PBMCs. Briefly, 5×10⁴ human PBMCs (StemCell Technologies) or cynomolgus monkey PBMCs (iQ Biosciences) were incubated with 7 serial 5-fold dilutions of one of the two aforementioned H6K3-IgG-IL12 constructs for 30 minutes at 37° C. Cells were washed twice with MACS buffer and stained with viability dye and fluorophore-conjugated antibodies against IL-12 and cell-surface markers for 20 minutes at 4° C. Cells were analyzed on a FACSCelesta using Diva software (BD Biosciences). Binding activity for all treatments was quantified and represented as the mean fluorescence intensity values of IL-12 on human CD8+ T cells and NK cells (FIGS. 17A-17B) and on cynomolgus monkey CD8+ T cells and NK cells (FIGS. 17C-17D). For the H6K3-IgG-IL12 (LC) treatments, results are also reported as the frequency of IL-12+CD8+ T cells and NK cells (FIG. 17E). As shown in FIGS. 17A-17D, both H6K3-IgG-IL12 (LC) and H6K3-IgG-IL12 (1×HC) were able to selectively bind human CD8+ T cells over NK cells at a range of concentrations. Only a small proportion of human NK cells express CD8, and therefore the H6K3-IgG-IL12 (LC) construct only bound a small proportion of human NK cells (FIG. 17E upper left and upper right). […]

[3] = target: T2, cynomolgus monkey CD8 on cynomolgus …; test: flow cytometry, cynomolgus PBMCs incubated 30 min at 37 C with the fusion protein, anti-IL-12, gated on CD8+ T cells
Protocol: as §1

[4] = target: T3, human CD8 on human T cells (human, UniProt P01732 22-235; P10966 22-210); test: flow cytometry, human PBMCs incubated 30 min at 37 C with the fusion protein, anti-IL-12, gated on CD8+ T cells
T3 construct: whole, on cells; Target as carried by human CD3+/CD8+ T cells, PBMCs or MART-1-specific T cells; the mice were immunized with human CD8a; also called hCD8; CD8 expressed on the cell surface
Protocol: as §1

[5] = target: T3, human CD8 on human T cells; test: cell-based or functional assay
[6] = target: T3, human CD8 on human T cells; test: flow cytometry, human PBMCs incubated 30 min at 37 C with the fusion protein, AF647 anti-human IL-12, gated on CD8+ T cells
Protocol: Fusion proteins H6K3-IgG-IL12 (LC) and H6K3-IgG-IL12 (1×HC) were evaluated for their ability to selectively bind human CD8+ T cells in PBMCs. Briefly, 5×10⁴ human PBMCs (StemCell Technologies) were incubated with 7 serial 5-fold dilutions of one of the two aforementioned H6K3-IgG-IL12 constructs for 30 minutes at 37° C. Cells were washed twice with MACS buffer and stained for 20 minutes at 4° C. with fluorophore-conjugated anti-CD3, anti-CD4, anti-CD8, anti-CD56, and anti-IL12 antibodies, and viability dye. Cells were analyzed on a FACSCelesta using Diva software (BD Biosciences). Binding activity was quantified and represented as the mean fluorescent intensity values of IL-12 on either CD8+ T cells or NK Cells. As shown in FIGS. 16A-16B, both H6K3-IgG-IL12 (LC) and H6K3-IgG-IL12 (1×HC) were able to selectively bind human CD8+ T cells over NK cells at a range of concentrations.

T3 sequence (P01732 22-235, chain 1 of 2): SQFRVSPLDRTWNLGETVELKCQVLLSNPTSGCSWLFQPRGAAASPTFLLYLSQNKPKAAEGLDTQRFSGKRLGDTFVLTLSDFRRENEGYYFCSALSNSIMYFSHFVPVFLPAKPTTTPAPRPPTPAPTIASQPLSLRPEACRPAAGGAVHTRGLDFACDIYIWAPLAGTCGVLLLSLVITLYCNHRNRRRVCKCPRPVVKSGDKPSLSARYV
T3 sequence (P10966 22-210, chain 2 of 2): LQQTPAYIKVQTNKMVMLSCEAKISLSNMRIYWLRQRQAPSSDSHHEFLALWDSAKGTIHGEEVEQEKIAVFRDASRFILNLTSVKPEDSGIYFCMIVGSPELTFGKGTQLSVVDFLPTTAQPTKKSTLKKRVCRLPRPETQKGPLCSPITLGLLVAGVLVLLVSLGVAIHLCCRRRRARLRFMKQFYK
T1 sequence (P01731 28-247): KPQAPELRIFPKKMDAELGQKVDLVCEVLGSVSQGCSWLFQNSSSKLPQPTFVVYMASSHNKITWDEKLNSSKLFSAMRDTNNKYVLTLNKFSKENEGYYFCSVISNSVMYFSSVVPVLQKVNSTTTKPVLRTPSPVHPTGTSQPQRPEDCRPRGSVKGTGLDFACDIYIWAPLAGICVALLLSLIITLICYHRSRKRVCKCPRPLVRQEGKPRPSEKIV

Row | binding result (mouse CD8 on mouse cells) | EC50 for stimulation of pSTAT4 signaling, cynomolgus CD8+ T cells in activated PBMCs [1] [pM] | EC50 for stimulation of pSTAT4 signaling, cynomolgus NK cells in activated PBMCs [1] [pM] | EC50 (read off the curve) [2] [nM] | EC50 (read off the curve) [3] [nM] | EC50 (read off the curve) [4] [nM] | EC50 for stimulation of pSTAT4 signaling, human CD8+ T cells in activated PBMCs [5] [pM] | EC50 (read off the curve) [6] [nM] | Binder
1 | no binding | – | – | – | – | – | – | – | rIL-12 (ligand, also called rmIL-12; non-targeted recombinant mouse IL-12; copies: 1 + 1) alpha: RVIPVSGPARCLSQSRNLLKTTDDMVKTAREKLKHYSCTAEDIDHEDITRDQTSTLKTCLPLELHKNESCLATRETSSTTRGSCLPPQKTSLMMTLCLGSIYEDLKMYQTEFQAINAALQNHNHQQIILDKGMLVAIDELMQSLNHNGETLRQKPPVGEADPYRVKMKLCILLHAFSTRVVTINRVMGYLSSA beta: MWELEKDVYVVEVDWTPDAPGETVNLTCDTPEEDDITWTSDQRHGVIGSGKTLTITVKEFLDAGQYTCHKGGETLSHSHLLLHKKENGIWSTEILKNFKNKTFLKCEAPNYSGRFTCSWLVQRNMDLKFNIKSSSSSPDSRAVTCGMASLSAEKVTLDQRDYEKYSVSCQEDVTCPTAEETLPIELALEARQQNKYENYSTSFFIRDIIKPDPPKNLQMKPLKNSQVEVSWEYPDSWSTPHSYFSLKFFVRIQRKKEKMKETEEGCNQKGAFLVEKTSTEVQCKGGNVCVQAQDRYYNSSCSKWACVPCRVRS
2 | – | 2.3 | 2 | ~0.09 | ~0.05 | ~0.04 | 2.3 | ~0.06 | H6K3-IgG-IL12 (1×HC) (other, also called hCD8IgG-1×IL12 (HC); hCD8IgG-IL12 (1 × HC)) heavy 1: EVQLVQSGAEVKKPGATVKISCKASGYTFTDFTMHWVQQAPGKGLEWIGLVNPNNGGNIYAEKFQGRVTLTVDTSTSTAYMELSSLRSEDTAVYYCGRVPLYTSHGMDYWGQGTLVTVSSASTKGPSVFPLAPSSKSTSGGTAALGCLVKDYFPEPVTVSWNSGALTSGVHTFPAVLQSSGLYSLSSVVTVPSSSLGTQTYICNVNHKPSNTKVDKKVEPKSCDKTHTCPPCPAPEAAGGPSVFLFPPKPKDTLMISRTPEVTCVVVDVSHEDPEVKFNWYVDGVEVHNAKTKPREEQYASTYRVVSVLTVLHQDWLNGKEYKCKVSNKALGAPIEKTISKAKGQPREPQVYTLPPSRDELTKNQVSLWCLVKGFYPSDIAVEWESNGQPENNYKTTPPVLDSDGSFFLYSKLTVDKSRWQQGNVFSCSVMHEALHNHYTQKSLSLSPGKGGGSGGGGSGGGGSGGGGSIWELKKDVYVVELDWYPDAPGEMVVLTCDTPEEDGITWTLDQSSEVLGSGKTLTIQVKEFGDAGQYTCHKGGEVLSHSLLLLHKKEDGIWSTDILKDQKEPKNKTFLRCEAKNYSGRFTCWWLTTISTDLTFSVKSSRGSSDPQGVTCGAATLSAERVRGDNKEYEYSVECQEDSACPAAEESLPIEVMVDAVHKLKYENYTSSFFIRDIIKPDPPKNLQLKPLKNSRQVEVSWEYPDTWSTPHSYFSLTFCVQVQGKSKREKKDRVFTDKTSATVICRKNASISVRAQDRYYSSSWSEWASVPCSGGGSGGGSGGGSGGGSRNLPVATPDPGMFPCLHHSQNLLRAVSNMLQKARQTLEFYPCTSEEIDHEDITKDKTSTVEACLPLELTKNESCLNSRETSFITNGSCLASRKTSFMMALCLSSIYEDLKMYQVEFKTMNAKLLMDPKRQIFLDQNMLAVIDELMQALNFNSETVPQKSSLEEPDFYKTKIKLCILLHAFRIRAVTIDRVMSYLNAS heavy 2: EVQLVQSGAEVKKPGATVKISCKASGYTFTDFTMHWVQQAPGKGLEWIGLVNPNNGGNIYAEKFQGRVTLTVDTSTSTAYMELSSLRSEDTAVYYCGRVPLYTSHGMDYWGQGTLVTVSSASTKGPSVFPLAPSSKSTSGGTAALGCLVKDYFPEPVTVSWNSGALTSGVHTFPAVLQSSGLYSLSSVVTVPSSSLGTQTYICNVNHKPSNTKVDKKVEPKSCDKTHTCPPCPAPEAAGGPSVFLFPPKPKDTLMISRTPEVTCVVVDVSHEDPEVKFNWYVDGVEVHNAKTKPREEQYASTYRVVSVLTVLHQDWLNGKEYKCKVSNKALGAPIEKTISKAKGQPREPQVYTLPPSRDELTKNQVSLSCAVKGFYPSDIAVEWESNGQPENNYKTTPPVLDSDGSFFLVSKLTVDKSRWQQGNVFSCSVMHEALHNHYTQKSLSLSPGK light: EIVLTQSPATLSLSPGERATISCRASESVDSYDINSMHWYQQKPGQAPRLLIYRASHLQSGIPARFSGSGSRTDFTLTISSLEPEDFATYYCQQSNEDPLTFGQGTKLEIKRTVAAPSVFIFPPSDEQLKSGTASVVCLLNNFYPREAKVQWKVDNALQSGNSQESVTEQDSKDSTYSLSSTLTLSKADYEKHKVYACEVTHQGLSSPVTKSFNRGEC
